Data reported in the supplement of paper PMC7877785.
± gives the uncertainty stated by the source.

Experiment: self-splicing fitness, log relative to wild type (ln ratio); higher = more splicing; Tetrahymena group I intron in knt gene, E. coli kanamycin selection, DiMSum; sequences stand for … in CUCUCU…GGAGGGAAAAGUUAUCAGGCAUGCACCUGGUAGCUAGUCUUUAAACCAAUAGAUUGCAUCGGUUUAAAAGGCAAGACCGUCAAAUUGCGGGAAAGGGGUCAACAGCCGUUCAGUACCAAGUCUCAGGGGAAACUUUGAGAUGGCCUUGCAAAGGGUAUGGUAAUAAGCUGACGGACAUGGUCCUAACCACGCAGCCAAGUCCUAAGUCAACAGAUCUUCUGUUGAUAUGGAUGCAGUUCACAGACUAAAUGUCGGUCGGGGAAGAUGUAUUCUUCUCAUAAGAUAUAGUCGGACCUCUCCUUAAUGGGAGCUAGCGGAUGAAGUGAUGCAACACUGGAGCCGCUGGGAACUAAUUUGUAUGCGAAAGUAUAUUGAUUAGUUUUGGAGUACUCGUGGUCG
Summary of the method: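 The eight P1ex-region nucleotides of an intron in the knt kanamycin-resistance gene on pET-22b(+) were all randomised and the library put into E. coli BL21(DE3). Six replicate transformations were grown overnight at 37°C or 30°C on LB agar with or without 25 μg/mL kanamycin, together with 100 μg/mL carbenicillin, 50 μM IPTG and 0.2% rhamnose. Colonies were pooled and amplicon-sequenced on an Illumina HiSeq 2500. Fitness from DiMSum is the error-weighted combination of wild-type-normalised replicate fold changes, kanamycin over none.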

Row | Sequence | self-splicing fitness (ln) (30 °C) | self-splicing fitness (ln) (37 °C)
1 | GCAUAGCAAUAUUACGCUGC | -3.08 ± 0.44 | -2.11 ± 0.37
2 | GCAUAGCAAUAUUACGGAUA | -1.81 ± 0.22 | -0.643 ± 0.18
3 | GCAUAGCAAUAUUACGGAUC | -2.47 ± 0.21 | -1.63 ± 0.18
4 | GCAUAGCAAUAUUACGGCGC | -0.822 ± 0.17 | -0.485 ± 0.2
5 | GCAUAGCAAUAUUACGGGAA | -2.52 ± 0.21 | -0.707 ± 0.12
6 | GCAUAGCAAUAUUACGGGAG | -2.96 ± 0.19 | -0.949 ± 0.12
7 | GCAUAGCAAUAUUACGGGCA | -1.67 ± 0.14 | -0.974 ± 0.12
8 | GCAUAGCAAUAUUACGGGGC | -3.43 ± 0.23 | -2.72 ± 0.32
9 | GCAUAGCAAUAUUACGUACC | -0.706 ± 0.19 | -0.405 ± 0.26
10 | GCAUAGCAAUAUUACGUCAG | -2.47 ± 0.16 | -1.8 ± 0.23
11 | GCAUAGCAAUAUUACGUCCC | -1.38 ± 0.22 | 0.182 ± 0.21
12 | GCAUAGCAAUAUUACGUCUU | -1.46 ± 0.1 | -0.342 ± 0.11
13 | GCAUAGCAAUAUUACGUGAA | -0.877 ± 0.067 | -0.528 ± 0.07
14 | GCCAAGCAAUAUUACGAAAG | -3.63 ± 0.21 | -0.702 ± 0.2
15 | GCCAAGCAAUAUUACGAACU | -1.3 ± 0.18 | -0.873 ± 0.22
16 | GCCAAGCAAUAUUACGAAGU | -1.12 ± 0.049 | -0.235 ± 0.064
17 | GCCAAGCAAUAUUACGACCU | -1.34 ± 0.11 | -1.54 ± 0.15
18 | GCCAAGCAAUAUUACGAGAG | -2.88 ± 0.34 | -1.53 ± 0.22
19 | GCCAAGCAAUAUUACGAGCC | -3.51 ± 0.43 | -1.99 ± 0.43
20 | GCCAAGCAAUAUUACGAGUA | -3.27 ± 0.13 | -1.61 ± 0.07
21 | GCCAAGCAAUAUUACGAGUC | -1.58 ± 0.1 | -1.1 ± 0.12
22 | GCCAAGCAAUAUUACGCAAA | -1.13 ± 0.11 | -0.448 ± 0.12
23 | GCCAAGCAAUAUUACGCACA | -1.07 ± 0.14 | -0.724 ± 0.15
24 | GCCAAGCAAUAUUACGCAGA | -3.13 ± 0.16 | -2.22 ± 0.15

Row | Sequence | self-splicing fitness (ln) (30 °C) | self-splicing fitness (ln) (37 °C)
25 | GCCAAGCAAUAUUACGCAUC | -0.673 ± 0.082 | 0.0458 ± 0.095
26 | GCCAAGCAAUAUUACGCCAU | -3.22 ± 0.37 | -3.45 ± 0.46
27 | GCCAAGCAAUAUUACGCCGU | -2.07 ± 0.087 | -1.45 ± 0.12
28 | GCCAAGCAAUAUUACGCCUG | -4.13 ± 0.39 | -1.13 ± 0.19
29 | GCCAAGCAAUAUUACGCGAG | -2.43 ± 0.11 | -2 ± 0.17
30 | GCCAAGCAAUAUUACGCGUC | -1.31 ± 0.068 | -1.71 ± 0.088
31 | GCCAAGCAAUAUUACGGAGC | -3.32 ± 0.1 | -2.38 ± 0.12
32 | GCCAAGCAAUAUUACGGGAA | -0.356 ± 0.064 | -0.585 ± 0.079
33 | GCCAAGCAAUAUUACGGUCG | -3.19 ± 0.13 | -2.27 ± 0.17
34 | GCCAAGCAAUAUUACGGUUG | -3.23 ± 0.099 | -2.54 ± 0.14
35 | GCCAAGCAAUAUUACGUAAU | -1.11 ± 0.062 | -0.183 ± 0.074
36 | GCCAAGCAAUAUUACGUAUG | -2.94 ± 0.15 | -1 ± 0.13
37 | GCCAAGCAAUAUUACGUGAC | -1.89 ± 0.13 | -0.468 ± 0.12
38 | GCCAAGCAAUAUUACGUGCG | -2 ± 0.089 | -0.737 ± 0.1
39 | GCCAAGCAAUAUUACGUUAA | -3.54 ± 0.21 | -2.89 ± 0.17
40 | GCCCAGCAAUAUUACGAAAU | -1.7 ± 0.068 | -1.36 ± 0.089
41 | GCCCAGCAAUAUUACGAACA | -1.58 ± 0.12 | -1.46 ± 0.11
42 | GCCCAGCAAUAUUACGAACG | -1.79 ± 0.32 | -0.725 ± 0.34
43 | GCCCAGCAAUAUUACGAUUG | -2.63 ± 0.14 | -2.57 ± 0.22
44 | GCCCAGCAAUAUUACGCAAU | -1.23 ± 0.059 | -0.336 ± 0.069
45 | GCCCAGCAAUAUUACGCACC | -0.112 ± 0.075 | 0.19 ± 0.097
46 | GCCCAGCAAUAUUACGCAGG | -3.19 ± 0.13 | -2.27 ± 0.15
47 | GCCCAGCAAUAUUACGCCAG | -1.92 ± 0.13 | -2.32 ± 0.23
48 | GCCCAGCAAUAUUACGCCCA | -0.496 ± 0.15 | -1.1 ± 0.17

Row | Sequence | self-splicing fitness (ln) (30 °C) | self-splicing fitness (ln) (37 °C)
49 | GCCCAGCAAUAUUACGCCCG | -4 ± 0.28 | -2.36 ± 0.18
50 | GCCCAGCAAUAUUACGCGAA | -2.09 ± 0.071 | -0.554 ± 0.072
51 | GCCCAGCAAUAUUACGGAGA | -0.433 ± 0.062 | -0.0159 ± 0.072
52 | GCCCAGCAAUAUUACGGAGU | -2.57 ± 0.084 | -0.683 ± 0.085
53 | GCCCAGCAAUAUUACGGGAG | -0.834 ± 0.057 | -0.496 ± 0.067
54 | GCCCAGCAAUAUUACGGGGG | -3.34 ± 0.11 | -2.78 ± 0.15
55 | GCCCAGCAAUAUUACGGGUC | -4.06 ± 0.15 | -2.4 ± 0.16
56 | GCCCAGCAAUAUUACGGGUG | -1.58 ± 0.048 | -0.819 ± 0.054
57 | GCCCAGCAAUAUUACGGUGC | -3.13 ± 0.14 | -2.52 ± 0.18
58 | GCCCAGCAAUAUUACGGUUA | -0.529 ± 0.054 | 0.488 ± 0.062
59 | GCCCAGCAAUAUUACGUCGA | -1.5 ± 0.082 | -1.09 ± 0.086
60 | GCCCAGCAAUAUUACGUGGA | -0.734 ± 0.063 | 0.199 ± 0.076
61 | GCCCAGCAAUAUUACGUUGG | -3.22 ± 0.13 | -2.92 ± 0.15
62 | GCCCAGCAAUAUUACGUUUA | -1.7 ± 0.079 | -0.893 ± 0.078
63 | GCCGAGCAAUAUUACGAAUU | -2.59 ± 0.11 | -2.21 ± 0.15
64 | GCCGAGCAAUAUUACGACGU | -0.371 ± 0.11 | -0.741 ± 0.11
65 | GCCGAGCAAUAUUACGAGGG | -3.58 ± 0.27 | -1.91 ± 0.22
66 | GCCGAGCAAUAUUACGAGUC | -1.86 ± 0.14 | -0.892 ± 0.16
67 | GCCGAGCAAUAUUACGAGUG | -2.22 ± 0.14 | -2.16 ± 0.13
68 | GCCGAGCAAUAUUACGAUAG | -2.94 ± 0.21 | -2.13 ± 0.21
69 | GCCGAGCAAUAUUACGAUGA | -2.38 ± 0.12 | -1.28 ± 0.1
70 | GCCGAGCAAUAUUACGAUGG | -2.48 ± 0.26 | -2.96 ± 0.31
71 | GCCGAGCAAUAUUACGCAGA | -3.39 ± 0.47 | -2.39 ± 0.29
72 | GCCGAGCAAUAUUACGCAUU | -2.73 ± 0.14 | -0.759 ± 0.13

Row | Sequence | self-splicing fitness (ln) (30 °C) | self-splicing fitness (ln) (37 °C)
73 | GCCGAGCAAUAUUACGCGGG | -4.07 ± 0.2 | -2.3 ± 0.18
74 | GCCGAGCAAUAUUACGCUAG | -2.67 ± 0.17 | -3.17 ± 0.29
75 | GCCGAGCAAUAUUACGCUGG |  | -2.07 ± 0.33
76 | GCCGAGCAAUAUUACGGACA | -0.642 ± 0.083 | 0.233 ± 0.082
77 | GCCGAGCAAUAUUACGGAGG | -3.45 ± 0.18 | -2.1 ± 0.21
78 | GCCGAGCAAUAUUACGGCAA | -2.4 ± 0.33 | -1.91 ± 0.31
79 | GCCGAGCAAUAUUACGGGGU | -4.35 ± 0.33 | -2.56 ± 0.2
80 | GCCGAGCAAUAUUACGGGUU | -3.35 ± 0.17 | -0.886 ± 0.092
81 | GCCGAGCAAUAUUACGUCGC | -4.48 ± 0.47 | -1.88 ± 0.25
82 | GCCGAGCAAUAUUACGUCUG | -3.36 ± 0.32 | -2 ± 0.27
83 | GCCGAGCAAUAUUACGUGAC | -2.14 ± 0.15 | -1.16 ± 0.19
84 | GCCGAGCAAUAUUACGUGCA | -2.31 ± 0.25 | -2.24 ± 0.18
85 | GCCGAGCAAUAUUACGUUAC | -3.09 ± 0.21 | -2.3 ± 0.19
86 | GCCUAGCAAUAUUACGACAA | -2.19 ± 0.23 | -2.22 ± 0.32
87 | GCCUAGCAAUAUUACGACUG | -3.25 ± 0.27 | -2.97 ± 0.4
88 | GCCUAGCAAUAUUACGAGAA |  | -1.26 ± 0.4
89 | GCCUAGCAAUAUUACGAGCC | -1.8 ± 0.15 | -1.67 ± 0.23
90 | GCCUAGCAAUAUUACGAUUU | -1.98 ± 0.092 | -1.34 ± 0.097
91 | GCCUAGCAAUAUUACGCAAA | -0.846 ± 0.14 | -1.41 ± 0.16
92 | GCCUAGCAAUAUUACGCACG | -1.79 ± 0.23 | -1.43 ± 0.19
93 | GCCUAGCAAUAUUACGCAGG | -4.18 ± 0.28 | -2.44 ± 0.25
94 | GCCUAGCAAUAUUACGGACA | -1.03 ± 0.097 | -0.277 ± 0.11
95 | GCCUAGCAAUAUUACGGAGG | -2.47 ± 0.29 | -2.65 ± 0.28
